Legend:
Put3 = biological target: T1, Put3 (UniProt P25502 1-979); assay: EMSA
T1 sequence: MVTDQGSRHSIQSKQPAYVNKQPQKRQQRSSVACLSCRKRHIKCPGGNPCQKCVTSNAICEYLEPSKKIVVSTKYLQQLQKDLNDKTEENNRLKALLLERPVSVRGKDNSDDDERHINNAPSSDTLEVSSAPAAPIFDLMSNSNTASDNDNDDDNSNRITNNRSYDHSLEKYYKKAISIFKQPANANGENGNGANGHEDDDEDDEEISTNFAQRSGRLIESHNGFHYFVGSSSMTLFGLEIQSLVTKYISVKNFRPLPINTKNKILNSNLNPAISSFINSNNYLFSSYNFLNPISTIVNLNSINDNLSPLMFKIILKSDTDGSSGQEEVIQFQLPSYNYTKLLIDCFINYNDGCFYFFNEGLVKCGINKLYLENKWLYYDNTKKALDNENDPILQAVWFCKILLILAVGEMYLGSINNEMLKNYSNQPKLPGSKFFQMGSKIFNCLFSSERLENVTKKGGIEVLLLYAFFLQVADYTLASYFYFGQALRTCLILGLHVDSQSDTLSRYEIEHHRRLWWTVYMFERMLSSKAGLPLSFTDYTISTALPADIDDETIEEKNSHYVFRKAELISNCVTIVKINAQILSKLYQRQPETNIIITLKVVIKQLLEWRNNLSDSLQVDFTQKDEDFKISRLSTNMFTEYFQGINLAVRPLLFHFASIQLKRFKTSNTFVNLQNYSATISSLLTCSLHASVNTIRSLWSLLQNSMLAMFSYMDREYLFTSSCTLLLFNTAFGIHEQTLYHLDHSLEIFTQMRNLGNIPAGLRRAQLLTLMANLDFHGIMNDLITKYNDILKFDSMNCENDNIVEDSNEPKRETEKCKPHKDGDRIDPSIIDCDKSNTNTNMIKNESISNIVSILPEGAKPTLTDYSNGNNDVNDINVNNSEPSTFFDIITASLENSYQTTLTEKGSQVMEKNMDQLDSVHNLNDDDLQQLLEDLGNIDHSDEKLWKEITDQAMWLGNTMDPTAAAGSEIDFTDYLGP

Put3;Myo3 = Put3;Myo3 (Saccharomyces cerevisiae?;Saccharomyces …, UniProt P25502;P36006 1-979;1-1272, |); assay: EMSA

B1: GRSI oligonucleotide (dsDNA)
DNA 1: GTGTTCCGGGGTTGGATGCGGAA
DNA 2: TTCCGCATCCAACCCCGGAACAC
B1: binds (Put3); binds (Put3;Myo3).

B2: UAS oligonucleotide (dsDNA)
DNA 1: TCTCGGGAAGCCAACTCCGAAGC
DNA 2: GCTTCGGAGTTGGCTTCCCGAGA
B2: binds (Put3).

— article PMC7108666
